Assay results from US20250019437A1.
Numbering of substitutions follows the chain as printed.

T1: human TREM2 (triggering receptor expressed on myeloid cells 2) (human) (UniProt Q9NZC2)
T1 sequence (looked up): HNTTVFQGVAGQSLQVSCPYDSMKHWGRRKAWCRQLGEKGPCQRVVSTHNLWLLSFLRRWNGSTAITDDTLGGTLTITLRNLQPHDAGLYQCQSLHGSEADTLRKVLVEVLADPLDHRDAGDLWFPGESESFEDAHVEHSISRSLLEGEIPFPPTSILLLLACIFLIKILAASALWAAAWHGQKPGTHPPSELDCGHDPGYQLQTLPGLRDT

B1: 6E7 antibody affinity modulation variant V34 (antibody, V domains shown)
VH: EVQLVQSGAEVKKPGESLKISCKGSGYSFTSYWIAWVRQMPGKGLEWMGIIYPGDSDTRYSPSFQGQVTISADKSISTAYLQWSSLKASDTAMYFCARQRTFYYDSSDYFDYWGQGTLVTVSS
VL: DIQMTQSPSSVSASVGDRVTITCRASQGISSWLAWYQQKPGKAPKLLIYAASSLQDGVPSRFSGSGSGTDFTLTISSLQPEDFATYFCQQADSFPRTFGQGTKLEIK
B2: 6E7 antibody affinity modulation variant V59 (antibody, V domains shown)
VH: B1 VH
VL: B1 VL with D56N, Q89M
B3: 6E7 antibody affinity modulation variant V58 (antibody, V domains shown)
VH: B1 VH
VL: B1 VL with A50K, D56N
B4: 6E7 antibody affinity modulation variant V35 (antibody, V domains shown)
VH: B1 VH
VL: B1 VL with D56N, D92Y
B5: 6E7 antibody affinity modulation variant V44 (antibody, V domains shown)
VH: B1 VH with G54S
VL: B1 VL with D56N
B6: 6E7 antibody affinity modulation variant V46 (antibody, V domains shown)
VH: B1 VH
VL: B1 VL with S53T, D56N
B7: 6E7 antibody affinity modulation variant V57 (antibody, V domains shown)
VH: B1 VH
VL: B1 VL with R24A, D56N
B8: 6E7 antibody affinity modulation variant V47 (antibody, V domains shown)
VH: B1 VH
VL: B1 VL with D56N, R96M
B9: 6E7 antibody affinity modulation variant V56 (antibody, V domains shown)
VH: B1 VH with S61Q
VL: B1 VL with D56N
B10: 6E7 antibody affinity modulation variant V42 (antibody, V domains shown)
VH: B1 VH with Y32A
VL: B1 VL with D56N
B11: 6E7 antibody affinity modulation variant V43 (antibody, V domains shown)
VH: B1 VH with D57G
VL: B1 VL with D56N
B12: 6E7 antibody affinity modulation variant V54 (antibody, V domains shown)
VH: B1 VH with Y32Q
VL: B1 VL with D56N
B13: 6E7 antibody affinity modulation variant V45 (antibody, V domains shown)
VH: B1 VH
VL: B1 VL with W32F, D56N
B14: 6E7 antibody affinity modulation variant V55 (antibody, V domains shown)
VH: B1 VH with R59I, F64H
VL: B1 VL with D56N

Each binder was assayed against T1, human TREM2 (triggering receptor expressed on myeloid cells 2) (human) (assay: 2nd screen, 100 nM Ab).

Binder | Binding Signal (fold over 6E7 parental antibody) [fold]
B1 | 1.02
B2 | 0.6
B3 | 0.68
B4 | 0.29
B5 | 0.52
B6 | 0.96
B7 | 0.85
B8 | 0.47
B9 | 0.59
B10 | 0.41
B11 | 0.33
B12 | 0.54
B13 | 0.53
B14 | 0.66

These binders were tested against T1, human TREM2 (triggering receptor expressed on myeloid cells 2) (human) (assay: 1st screen, 110 nM Ab).

Binder | Binding Signal (fold over 6E7 parental antibody) [fold]
B1 | 0.34
B2 | 0.19
B3 | 0.28
B4 | 0.21
B5 | 0.65
B6 | 0.83
B7 | 0.84
B8 | 0.42
B9 | 0.23
B10 | 0.45
B11 | 0.2
B12 | 0.55
B13 | 0.43
B14 | 0.24
